Data: doi:10.1101/2022.08.20.504624 (bioRxiv, 2022)

B1: GST-tagged CrIFT57_(1-234) (domain or fragment, Chlamydomonas reinhardtii, UniProt Q2XQY7 1-234, looked up)
chain: MSSKRGGRSSLAKAPEEAVNGEAFAPEASPPPPGDDGDAGGEDGGAPAPPPPPATKGGPVAVGRSLEIQTTPDVCMEMLADKLKLLNYEADFCRKKKPYRKPLSRLYFAVPLANSSEQFFYFTSLATWLLGLAGVELPAPKEFDDPNLTCQNILGAVKKLGFAPPSYHPTKLTVGNGKEVVGVLDGLVDFVLERRHHKYSRPAYGNDGQPEEGVQLDDEAEAAAMEGADELAMP
B2: Chlamydomonas IFT74_(128-C) (domain or fragment, Chlamydomonas reinhardtii, UniProt Q6RCE1 128-641, looked up)
chain: GVGRQVLDKNYFMNELRQKRMEIAQVTSNMKSDLEALERKQAQYNSMDKRASDLSKEVKILQEALADYNTVLDKVGSQAPVYVIQQEFAALKDRNEQQRKRVDEVLTERLNLESKAKQAESKMSEIQASMDQRLNSMPPSQRNEYTTLVAEQQQLQADSKRFEEVLDELDKALQASEGELARNPFKQRSLQLQEQIRALTEKKYELTEEERQSKRSPEELRADLMAKIKRDNTEVEQMTQQIRELQDQIKKMEERVKSLGGATSGAAAAEEKANREKFEELLAKERDLNNFMDGFPSRKAAKMQEKQQKEDGIVGVLEKMVKMQGIIGSNLPSQKKYKEMQDELEYKKMQLENTQTTQERLKEELTMRRTELEKIDTLEDKIKLELTQLAERQEAMEKEMGEFGSVEDIQRKANAARERMEGLRSVLLKRKDLLRSIVAERGLKFQAKRAQLQDHNLQVQLEKMEAKLKNLSAGVFEMDEFIKAKESETNYRQLASNIAALVDDLNVHVKKAVV
B3: Chlamydomonas IFT27 (natural protein, Chlamydomonas reinhardtii)
chain: MVKKEVKPIDITATLRCKVAVVGEATVGKSALISMFTSKGSKFLKDYAMTSGVEVVVAPVTIPDTTVSVELFLLDTAGSDLYKEQISQYWNGVYYAILVFDVSSMESFESCKAWFELLKSARPDRERPLRAVLVANKTDLPPQRHQVRLDMAQDWATTNTLDFFDVSANPPGKDADAPFLSIATTFYRNYEDKVAAFQDACRNY
B4: Chlamydomonas IFT25_(1-136) (domain or fragment, Chlamydomonas reinhardtii, UniProt B8LIX8 1-136, looked up)
chain: MKDYAREENGGLVVMASCSDERFPPENMLDGKDNTFWVTTGMFPQEFVLRLESCIRVSKITTLSLNVRKLAVEKCDQDKPDQFEKVFEVELANRGDRLQTEVHQVNIRAKYLKFILLQGHGEFATVNRVSVVGGDD
B5: Chlamydomonas IFT46_(188-319) (domain or fragment, Chlamydomonas reinhardtii, UniProt A2T2X4 188-319, looked up)
chain: QLRQLSKEAPGAKADMVGRLEHTDENKAKKIQQWIASINDIHKAKPAATVNYSKRMPEIEALMQEWPPEVETFLKTMHMPSGDVELDIKTYARLVCTLLDIPVYDDPVESLHVLFTLYLEFKNNPIFRQHME

Assays:
CrIFT172_(1-968) = target: T1, CrIFT172_(1-968) (Chlamydomonas reinhardtii, UniProt Q5DM57 1-968); test: pull-down
T1 sequence (looked up): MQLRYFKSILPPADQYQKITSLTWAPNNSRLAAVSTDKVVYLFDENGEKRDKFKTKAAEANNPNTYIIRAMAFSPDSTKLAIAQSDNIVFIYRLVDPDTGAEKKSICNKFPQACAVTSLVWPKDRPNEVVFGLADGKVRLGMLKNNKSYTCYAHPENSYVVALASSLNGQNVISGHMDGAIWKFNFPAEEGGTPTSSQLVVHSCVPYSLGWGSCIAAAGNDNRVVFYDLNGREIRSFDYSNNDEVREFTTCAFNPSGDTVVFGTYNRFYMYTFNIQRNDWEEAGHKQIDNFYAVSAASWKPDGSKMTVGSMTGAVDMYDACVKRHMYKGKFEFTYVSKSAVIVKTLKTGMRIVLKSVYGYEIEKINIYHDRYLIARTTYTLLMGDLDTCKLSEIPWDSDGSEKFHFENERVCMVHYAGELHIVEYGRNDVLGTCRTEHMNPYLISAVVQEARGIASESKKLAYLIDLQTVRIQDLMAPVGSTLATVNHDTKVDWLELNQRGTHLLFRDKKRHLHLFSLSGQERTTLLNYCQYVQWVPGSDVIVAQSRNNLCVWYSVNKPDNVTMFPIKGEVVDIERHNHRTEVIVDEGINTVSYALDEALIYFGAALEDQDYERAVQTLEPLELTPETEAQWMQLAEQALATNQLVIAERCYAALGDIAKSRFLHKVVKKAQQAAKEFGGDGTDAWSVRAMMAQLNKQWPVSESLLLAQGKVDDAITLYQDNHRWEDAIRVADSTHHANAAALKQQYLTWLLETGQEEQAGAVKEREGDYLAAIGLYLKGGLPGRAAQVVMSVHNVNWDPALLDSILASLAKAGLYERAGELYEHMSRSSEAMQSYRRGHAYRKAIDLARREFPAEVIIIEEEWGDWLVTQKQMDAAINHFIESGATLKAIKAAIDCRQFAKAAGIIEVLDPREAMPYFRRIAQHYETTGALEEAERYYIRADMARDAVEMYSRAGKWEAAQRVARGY

Chlamydomonas IFT81 = target: T2, Chlamydomonas IFT81 (Chlamydomonas reinhardtii, UniProt Q68RJ5 1-683); test: cross-linking
T2 sequence (looked up): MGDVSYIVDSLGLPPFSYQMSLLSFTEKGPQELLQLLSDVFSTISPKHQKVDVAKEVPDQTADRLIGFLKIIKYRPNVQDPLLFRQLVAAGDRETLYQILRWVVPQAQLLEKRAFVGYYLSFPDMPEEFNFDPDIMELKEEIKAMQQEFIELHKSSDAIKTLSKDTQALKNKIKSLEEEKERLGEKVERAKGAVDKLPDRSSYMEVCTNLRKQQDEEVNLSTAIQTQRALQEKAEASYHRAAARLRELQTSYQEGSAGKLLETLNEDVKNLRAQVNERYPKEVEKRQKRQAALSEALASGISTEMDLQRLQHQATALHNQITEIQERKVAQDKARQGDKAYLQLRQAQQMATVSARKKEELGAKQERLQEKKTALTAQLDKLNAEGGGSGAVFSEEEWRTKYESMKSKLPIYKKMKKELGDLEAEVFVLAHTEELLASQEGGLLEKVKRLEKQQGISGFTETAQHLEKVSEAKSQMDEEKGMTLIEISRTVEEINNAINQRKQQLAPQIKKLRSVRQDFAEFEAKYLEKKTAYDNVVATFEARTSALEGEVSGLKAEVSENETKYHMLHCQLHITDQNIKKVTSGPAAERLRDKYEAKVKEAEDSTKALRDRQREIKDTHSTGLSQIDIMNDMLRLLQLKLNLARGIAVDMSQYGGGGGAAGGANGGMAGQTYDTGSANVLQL

[1] = target: T3, Chlamydomonas IFT81/74_(128-C) heterodimer within the IFT-B1 nonamer (Chlamydomonas reinhardtii, UniProt Q68RJ5 1-683; Q6RCE1 128-641); test: cross-linking
T3 sequence (looked up) 1: T2 sequence (looked up)
T3 sequence (looked up) 2: B2 chain

[2] = target: B2; test: cross-linking

Row | Binder | binding result (Chlamydomonas IFT81) | binding result [1] | also measured
1 | B1 | – | – | binding result (CrIFT172_(1-968)): binds
2 | B2 | binds | – | –
3 | B3 | – | binds | –
4 | B4 | – | binds | –
5 | B5 | binds | – | binding result [2]: binds
